From patent US9175053

Biological target: ubiquitylated alpha-synuclein(1-17) model peptide 8 (desulfurized ligation product of synthetic Ub-SR 5 and peptide 7), P37840

B1: recombinant human ubiquitin C-terminal hydrolase L3 (protein)
chain: MEGQRWLPLEANPEVTNQFLKQLGLHPNWQFVDVYGMDPELLSMVPRPVCAVLLLFPITEKYEVFRTEEEEKIKSQGQDVTSSVYFMKQTISNACGTIGLIHAIANNKDKMHFESGSTLKKFLEESVSMSPEERARYLENYDAIRVTHETSAHEGQTEAPSIDEKVDLHFIALVHVDGHLYELDGRKPFPINHGETSDETLLEDAIEVCKKFMERDPDELRFNAIALSAA
- enzymatic cleavage of isopeptide (hydrolysis followed by C-4 analytical RP-HPLC, 12 hours at 37 C): a complete hydrolysis was achieved
